Data on 3 molecules can be found in paper PMC6454061.

For assay [1], the target named is β1,4-galactosyltransferase B4GalT-I (UniProt P15291). Kind of assay: FRET in cells (heteromer assembly). The settings on record: n = 3, 15,000 cells each; parent: est. 100; read off a plot.
The target in assay [2] is ST6Gal-I cysteine mutant C24S (UniProt P15907). Briefly: FRET in cells (homomer assembly). The note with it: n = 3, 15,000 cells each; parent: est. 100; read off a plot.
Assay [3] addresses T1, ST6Gal-I cysteine mutant C406A, P15907.
T1 chain: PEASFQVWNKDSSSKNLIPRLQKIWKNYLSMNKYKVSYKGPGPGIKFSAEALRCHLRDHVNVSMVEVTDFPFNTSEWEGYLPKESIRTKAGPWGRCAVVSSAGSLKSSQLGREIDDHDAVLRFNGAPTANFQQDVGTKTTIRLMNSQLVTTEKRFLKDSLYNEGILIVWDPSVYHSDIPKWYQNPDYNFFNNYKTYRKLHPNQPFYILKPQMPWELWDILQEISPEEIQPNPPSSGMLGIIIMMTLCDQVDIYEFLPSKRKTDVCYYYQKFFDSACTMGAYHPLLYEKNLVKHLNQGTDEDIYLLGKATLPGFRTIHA
Briefly: FRET in cells (homomer assembly). The settings on record: chain shown with the change; n = 3, 15,000 cells each; parent: est. 100; read off a plot.

In assay [4] the target is T2, β1,4-galactosyltransferase B4GalT-I, P15291.
T2 chain: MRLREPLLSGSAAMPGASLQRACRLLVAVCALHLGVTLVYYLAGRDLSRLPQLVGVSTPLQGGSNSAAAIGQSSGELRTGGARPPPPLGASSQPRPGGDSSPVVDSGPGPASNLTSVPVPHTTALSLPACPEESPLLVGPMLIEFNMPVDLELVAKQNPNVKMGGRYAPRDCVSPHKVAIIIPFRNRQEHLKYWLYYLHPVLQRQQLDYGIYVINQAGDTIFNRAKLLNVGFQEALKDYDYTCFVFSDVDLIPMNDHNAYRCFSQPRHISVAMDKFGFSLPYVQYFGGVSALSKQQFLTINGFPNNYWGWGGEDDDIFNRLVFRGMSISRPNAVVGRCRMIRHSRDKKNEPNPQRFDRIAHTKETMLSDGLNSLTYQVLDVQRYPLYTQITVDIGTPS
Briefly: FRET in cells (heteromer assembly). The note with it: chain shown with the change; n = 3, 15,000 cells each; parent: est. 100; read off a plot.

For assay [5], the target named is T3, ST6Gal-I cysteine mutant C353A, P15907.
T3 chain: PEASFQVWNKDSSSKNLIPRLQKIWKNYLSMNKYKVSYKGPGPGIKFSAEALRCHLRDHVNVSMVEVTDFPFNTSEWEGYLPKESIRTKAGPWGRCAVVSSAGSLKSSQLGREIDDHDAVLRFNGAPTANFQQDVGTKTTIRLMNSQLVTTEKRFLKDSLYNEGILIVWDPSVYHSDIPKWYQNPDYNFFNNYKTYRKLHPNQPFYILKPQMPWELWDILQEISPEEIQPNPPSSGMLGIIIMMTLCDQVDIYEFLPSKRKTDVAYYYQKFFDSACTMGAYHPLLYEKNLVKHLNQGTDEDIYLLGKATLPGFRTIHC
Briefly: FRET in cells (homomer assembly). The note with it: chain shown with the change; n = 3, 15,000 cells each; parent: est. 100; read off a plot.

On to “α-2,6-sialyltransferase ST6Gal-I, wild type (from UniProt P15907) C24S”, for which the percent of parent (% of WT control) is 97 in assay [1] and 70 in assay [2].

B1: α-2,6-sialyltransferase ST6Gal-I, wild type, P15907 C406A (protein)
chain: PEASFQVWNKDSSSKNLIPRLQKIWKNYLSMNKYKVSYKGPGPGIKFSAEALRCHLRDHVNVSMVEVTDFPFNTSEWEGYLPKESIRTKAGPWGRCAVVSSAGSLKSSQLGREIDDHDAVLRFNGAPTANFQQDVGTKTTIRLMNSQLVTTEKRFLKDSLYNEGILIVWDPSVYHSDIPKWYQNPDYNFFNNYKTYRKLHPNQPFYILKPQMPWELWDILQEISPEEIQPNPPSSGMLGIIIMMTLCDQVDIYEFLPSKRKTDVCYYYQKFFDSACTMGAYHPLLYEKNLVKHLNQGTDEDIYLLGKATLPGFRTIHA
As to B1, the percent of parent (% of WT control) stood at 60 in assay [3] and 84 in assay [4].

B2: α-2,6-sialyltransferase ST6Gal-I, wild type, P15907 C353A (protein)
chain: PEASFQVWNKDSSSKNLIPRLQKIWKNYLSMNKYKVSYKGPGPGIKFSAEALRCHLRDHVNVSMVEVTDFPFNTSEWEGYLPKESIRTKAGPWGRCAVVSSAGSLKSSQLGREIDDHDAVLRFNGAPTANFQQDVGTKTTIRLMNSQLVTTEKRFLKDSLYNEGILIVWDPSVYHSDIPKWYQNPDYNFFNNYKTYRKLHPNQPFYILKPQMPWELWDILQEISPEEIQPNPPSSGMLGIIIMMTLCDQVDIYEFLPSKRKTDVAYYYQKFFDSACTMGAYHPLLYEKNLVKHLNQGTDEDIYLLGKATLPGFRTIHC
Consider B2, for which, in assay [5], the percent of parent (% of WT control) stood at 83.
